Assay results published in patent US20190078065A1, “MODIFIED DNA POLYMERASES” (SIGMA-ALDRICH CO. LLC, priority 2017, published 2019).

Columns and labels:
Format in all cases: biochemical
[1] = system: 3′-O-carbamate or ester blocked nucleotides; assay: template-free DNA synthesis reaction: incorporation of 3′-O-blocked nucleotides; details: template-independent, dNTP1, 2, 3, 5, 6 of Table 2; FIG. 5
Description: The ability of the PolM-loop1 chimera, Hs PolM-Lp1, to incorporate 3′-O-blocked nucleotides was examined in a template-free DNA synthesis reaction.

[2] = system: 3′-O-carbamate or ester blocked nucleotides; assay: incorporation of 3′-O-blocked nucleotides, mutant vs. wild type polymerase, quantified by densitometry; details: for rates of incorporation of 3′-O-carbamate or ester blocked nucleotides as compared to wild type (WT) Hs PolM: densitometry
Description: The incorporation of 3′-O-carbamate or ester blocked nucleotides by the PolM-loop1 chimera, Hs PolM-Lp1, or the truncated PolM-loop1 chimera, Hs tPolM-Lp1 was compared to that of wild type Hs PolM. The amount of incorporation was quantified by densitometry.

[3] = system: 3′-O-blocked adenosine 5′-triphosphates; assay: incorporation of 3′-O-blocked adenosine, comparison with Bt TdT

B1: Hs PolM-Lp1: Homo sapiens PolM, Loop 1 domain swap (protein)
chain: MLPKRRRARVGSPSGDAASSTPPSTRFPGVAIYLVEPRMGRSRRAFLTGLARSKGFRVLDACSSEATHVVMEETSAEEAVSWQERRMAAAPPGCTPPALLDISWLTESLGAGQPVPVECRHRLEVAGPRKGPLSPAWMPAYACQRPTPLTHHNTGLSEALEILAEAAGFEGSEGRLLTFCRAASVLKALPSPVTTLSQLQGLPHFGEHSSRVVQELLEHGVCEEVERVRRSERYQTMKLFTQIFGVGVKTADRWYREGLRTLDDLREQPQKLTQQQKAGLQHHQDLSTPVLRSDVDALQQVVEEAVGQALPGATVTLTGGFRRGKLQGHDVDFLITHPKEGQEAGLLPRVMCRLQDQGLILYHQHQESTFEKLRLPSRKVDALDHFERSFCIFRLPQPPGAAVGGSTRPCPSWKAVRVDLVVAPVSQFPFALLGWTGSKLFQRELRRFSRKEKGLWLNSHGLFDPEQKTFFQAASEEDIFRHLGLEYLPPEQRNA
incorporation of 3′-O-carbamate or ester blocked nucleotides [1]: successfully incorporated | rates of incorporation of 3′-O-carbamate or ester blocked nucleotides as compared to wild type (WT) Hs PolM [2]: significantly increased

B2: Hs tPolM-Lp1: Homo sapiens PolM, Loop 1 domain swap and N-terminal truncation (Δ 1-108) (protein)
chain: MLGAGQPVPVECRHRLEVAGPRKGPLSPAWMPAYACQRPTPLTHHNTGLSEALEILAEAAGFEGSEGRLLTFCRAASVLKALPSPVTTLSQLQGLPHFGEHSSRVVQELLEHGVCEEVERVRRSERYQTMKLFTQIFGVGVKTADRWYREGLRTLDDLREQPQKLTQQQKAGLQHHQDLSTPVLRSDVDALQQVVEEAVGQALPGATVTLTGGFRRGKLQGHDVDFLITHPKEGQEAGLLPRVMCRLQDQGLILYHQHQESTFEKLRLPSRKVDALDHFERSFCIFRLPQPPGAAVGGSTRPCPSWKAVRVDLVVAPVSQFPFALLGWTGSKLFQRELRRFSRKEKGLWLNSHGLFDPEQKTFFQAASEEDIFRHLGLEYLPPEQRNA
increase in incorporation relative to Bt TdT [3]: 2.7 fold | Fold increase Hs tPolM-Lp1 vs. Hs PolM-Lp1 ([2]; Blocking group 1): 2.2 Fold | Fold increase Hs tPolM-Lp1 vs. Hs PolM-Lp1 ([2]; Blocking group 2): 2.1 Fold | Fold increase Hs tPolM-Lp1 vs. Hs PolM-Lp1 ([2]; Blocking group 3): 2.0 Fold | Fold increase Hs tPolM-Lp1 vs. Hs PolM-Lp1 ([2]; Blocking group 5): 1.3 Fold | Fold increase Hs tPolM-Lp1 vs. Hs PolM-Lp1 ([2]; Blocking group 6 (artificial base-5SICS)): 3.0 Fold | Fold increase Hs tPolM-Lp1 vs. Hs PolM-Lp1 ([2]; Blocking group 6 (standard base)): 2.0 Fold | rates of incorporation of 3′-O-carbamate or ester blocked nucleotides as compared to wild type (WT) Hs PolM [2]: significantly increased
